Legend:
14-analyte M-DP panel = experiment: Pharmacodynamic M-DP score, 14-analyte panel (SomaLogic SOMAscan), clinical studies in RA; assay type: in vivo, human; conditions: for M-DP score mean difference ± SD, Good vs. No / M-DP score mean ± SD, DAS28-CRP response group Good / M-DP score mean ± SD, DAS28-CRP response group Moderate / M-DP score mean ± SD, DAS28-CRP response group No: response at week 24
From the text: Serum samples and data from eight interventional clinical studies with seven different active treatments for RA or placebo treatment were obtained and analyzed: sirukumab (anti-IL-6) and placebo treatments in SIRROUND-M (NCT01689532; Takeuchi T, et al. Arthritis Res Ther. 2018 Mar. 7; 20(1): 42), SIRROUND-D (NCT01604343; Takeuchi T, et al. Ann Rheum Dis. 2017 Dec.; 76(12): 2001-2008), and SIRROUND-T (NCT01606761; Aletaha D, et al. Lancet. 2017 Mar. 25; 389(10075): 1206-1217); sirukumab and adalimumab (anti-TNF-alpha) treatments in SIRROUND-H (NCT02019472; Taylor PC, et al. Ann Rheum Dis. 2018 May; 77(5): 658-666); golimumab (anti-TNF-alpha) treatment in GO-FURTHER (NCT00973479; Weinblatt ME, et al. Ann Rheum Dis. 2013 March; 72(3): 381-9); guselkumab (anti-IL-23p19), ustekinumab (anti-IL-12/IL-23p40), and placebo treatments in CNTO1275ARA2001 (NCT01645280; Cox JD, et al. […]); JNJ-40346527 (colony-stimulating factor-1 inhibitor) and placebo treatments in 40346527ARA2001 (NCT01597739; Genovese MC, et al. J Rheumatol. 2015 October; 42(10): 1752-60). Plasma samples were obtained from the RA-MAP TACERA study (Cope AP, et al. Nat Rev Rheumatol. 2018 January; 14(1): 53-60) before (baseline) and 6-months after initiation of conventional synthetic disease-modifying anti-rheumatic drugs (csDMARDs). Details of treatment dose groups, concomitant methotrexate use, and previous experience with csDMARDs and biologics are reported in Table 1. The studies were conducted in accordance with the Declaration of Helsinki. The study protocols were reviewed and approved by an independent ethics committee or institutional review board for each study center. Written informed consent was obtained from all patients before study entry. Additional study details and patient characteristics are available in the referenced publications for each study. For SIRROUND-D and SIRROUND-T studies, sets of serum samples from demographically-matched healthy controls were obtained from commercial sources (BioIVT, Westbury, N.Y.).
Serum samples from baseline (week 0) and the time points indicated in Table 1 were provided for quantification of 1189 serum analytes using the SomaScan v3.1 platform (SomaLogic, Boulder, Colo.; www.somalogic.com), with the exception of RA-MAP TACERA, for which plasma samples were analyzed for 1301 analytes using the SomaScan v3.2 platform. For some studies, a redacted dataset reporting data for a subset of the analytes was obtained. Relative fluorescence unit (RFU) data were sequentially normalized for hybridization controls (internal standards per samples), median signal across all samples (assumes same total protein concentration across sample set), and calibration controls (common sample standards across analysis plates). Samples failed quality control standards defined by Somalogic were excluded from analyses. The normalized RFU values were log2-transformed for subsequent analyses.
Changes in analyte expression levels were calculated for individual samples as the log2 transform of the ratio of the analyte level at the indicated time point (visit level) over the analyte level at baseline (baseline level) for a given subject, i.e., log 2(visit level/baseline level). Changes in RA disease-associated analytes per sample were summarized using a pharmacodynamic (PD) molecular disease profile (M-DP) score, defined as the median value of the log 2(visit level/baseline level) values for analytes in the defined M-DP analyte set. […] PD M-DP scores in the log 2(visit level/baseline level) scale can be transformed to percent change from baseline, using the transformation: (2^M-DP score−1)×100%.
Statistical analyses were performed on log2-transformed data, for either normalized Relative fluorescence unit (RFU) datasets or within-subject fold/baseline datasets. Significance of differences between groups was evaluated using General Linear Models, with t-tests when comparing two groups. […]

RA patients = conditions: RA patients; cited from earlier work
[1] = SIRROUND-D, score at week 4, sirukumab SC 50 mg q4w
[2] = SIRROUND-D, score at week 4, sirukumab SC 100 mg q2w
[3] = SIRROUND-D, score at week 24, sirukumab SC 50 mg q4w
[4] = SIRROUND-D, score at week 24, sirukumab SC 100 mg q2w
[5] = SIRROUND-H, score at week 4, sirukumab SC 50 mg q4w or adalimumab SC 40 mg q2w
[6] = SIRROUND-M, score at week 4, sirukumab SC 50 mg q4w
[7] = SIRROUND-M, score at week 4, sirukumab SC 100 mg q2w
[8] = SIRROUND-T, score at week 4, sirukumab SC 50 mg q4w
[9] = SIRROUND-T, score at week 4, sirukumab SC 100 mg q2w
[10] = SIRROUND-T, score at week 24, sirukumab SC 50 mg q4w
[11] = SIRROUND-T, score at week 24, sirukumab SC 100 mg q2w

B1: Sirukumab (antibody, chains of the INN, looked up, V domains shown)
VH: EVQLVESGGGLVQPGGSLRLSCAASGFTFSPFAMSWVRQAPGKGLEWVAKISPGGSWTYYSDTVTGRFTISRDNAKNSLYLQMNSLRAEDTAVYYCARQLWGYYALDIWGQGTTVTVSS
VL: EIVLTQSPATLSLSPGERATLSCSASISVSYMYWYQQKPGQAPRLLIYDMSNLASGIPARFSGSGSGTDFTLTISSLEPEDFAVYYCMQWSGYPYTFGGGTKVEIK
notes: a human anti-interleukin-6 (IL-6) monoclonal antibody
14-analyte M-DP panel; [1]
  M-DP score mean ± SD, All treated: −0.42 ± 0.34 log2 (fold/baseline)
  M-DP score mean difference ± SD, Good vs. No: −0.08 ± 0.33 log2 (fold/baseline)
  M-DP score mean ± SD, DAS28-CRP response group Good: −0.44 ± 0.32 log2 (fold/baseline)
  M-DP score mean ± SD, DAS28-CRP response group Moderate: −0.43 ± 0.36 log2 (fold/baseline)
  M-DP score mean ± SD, DAS28-CRP response group No: −0.36 ± 0.35 [44]+ log2 (fold/baseline)
14-analyte M-DP panel; SIRROUND-D, score at week 4, sirukumab SC 50 mg q4w, listed as sirukumab
  M-DP score mean ± SD, All treated: -0.42±0.34 log2 (fold/baseline)
14-analyte M-DP panel; [2]
  M-DP score mean ± SD, All treated: −0.48 ± 0.30 log2 (fold/baseline)
  M-DP score mean difference ± SD, Good vs. No: −0.27 ± 0.30 log2 (fold/baseline)
  M-DP score mean ± SD, DAS28-CRP response group Good: −0.50 ± 0.29 log2 (fold/baseline)
  M-DP score mean ± SD, DAS28-CRP response group Moderate: −0.51 ± 0.30 log2 (fold/baseline)
  M-DP score mean ± SD, DAS28-CRP response group No: −0.33 ± 0.32 [28]+ log2 (fold/baseline)
14-analyte M-DP panel; SIRROUND-D, score at week 4, sirukumab SC 100 mg q2w, listed as sirukumab
  M-DP score mean ± SD, All treated: -0.48±0.30 log2 (fold/baseline)
14-analyte M-DP panel; [3]
  M-DP score mean ± SD, All treated: −0.61 ± 0.40 log2 (fold/baseline)
  M-DP score mean ± SD, DAS28-CRP response group Good: −0.65 ± 0.39 log2 (fold/baseline)
  M-DP score mean ± SD, DAS28-CRP response group Moderate: −0.59 ± 0.39 log2 (fold/baseline)
  M-DP score mean ± SD, DAS28-CRP response group No: 0.06 ± 0.00 [1] log2 (fold/baseline)
14-analyte M-DP panel; [4]
  M-DP score mean ± SD, All treated: −0.69 ± 0.31 log2 (fold/baseline)
  M-DP score mean ± SD, DAS28-CRP response group Good: −0.69 ± 0.34 log2 (fold/baseline)
  M-DP score mean ± SD, DAS28-CRP response group Moderate: −0.75 ± 0.20 log2 (fold/baseline)
  M-DP score mean ± SD, DAS28-CRP response group No: −0.52 ± 0.37 [2] log2 (fold/baseline)
14-analyte M-DP panel; SIRROUND-D, week 4, sirukumab 50 mg q4w
  M-DP score GMean decrease from baseline: 21%
14-analyte M-DP panel; SIRROUND-D, week 4, sirukumab 100 mg q2w
  M-DP score GMean decrease from baseline: 25%
14-analyte M-DP panel; [5]
  M-DP score mean ± SD, All treated: −0.41 ± 0.30 log2 (fold/baseline)
  M-DP score mean difference ± SD, Good vs. No: −0.07 ± 0.30 log2 (fold/baseline)
  M-DP score mean ± SD, DAS28-CRP response group Good: −0.45 ± 0.33 log2 (fold/baseline)
  M-DP score mean ± SD, DAS28-CRP response group Moderate: −0.40 ± 0.30 log2 (fold/baseline)
  M-DP score mean ± SD, DAS28-CRP response group No: −0.38 ± 0.22 [12]+ log2 (fold/baseline)
14-analyte M-DP panel; [6]
  M-DP score mean ± SD, All treated: −0.51 ± 0.37 log2 (fold/baseline)
  M-DP score mean difference ± SD, Good vs. No: −0.40 ± 0.37 log2 (fold/baseline)
  M-DP score mean ± SD, DAS28-CRP response group Good: −0.59 ± 0.38 log2 (fold/baseline)
  M-DP score mean ± SD, DAS28-CRP response group Moderate: −0.46 ± 0.30 log2 (fold/baseline)
  M-DP score mean ± SD, DAS28-CRP response group No: −0.19 ± 0.25 [7] log2 (fold/baseline)
14-analyte M-DP panel; [7]
  M-DP score mean ± SD, All treated: −0.59 ± 0.29 log2 (fold/baseline)
  M-DP score mean ± SD, DAS28-CRP response group Good: −0.55 ± 0.27 log2 (fold/baseline)
  M-DP score mean ± SD, DAS28-CRP response group Moderate: −0.70 ± 0.34 log2 (fold/baseline)
  M-DP score mean ± SD, DAS28-CRP response group No: −0.51 ± 0.10 [2] log2 (fold/baseline)
14-analyte M-DP panel; [8]
  M-DP score mean ± SD, All treated: −0.34 ± 0.28 log2 (fold/baseline)
  M-DP score mean difference ± SD, Good vs. No: −0.06 ± 0.29 log2 (fold/baseline)
  M-DP score mean ± SD, DAS28-CRP response group Good: −0.35 ± 0.30 log2 (fold/baseline)
  M-DP score mean ± SD, DAS28-CRP response group Moderate: −0.37 ± 0.26 log2 (fold/baseline)
  M-DP score mean ± SD, DAS28-CRP response group No: −0.29 ± 0.26 [30]+ log2 (fold/baseline)
14-analyte M-DP panel; [9]
  M-DP score mean ± SD, All treated: −0.49 ± 0.35 log2 (fold/baseline)
  M-DP score mean difference ± SD, Good vs. No: −0.20 ± 0.34 log2 (fold/baseline)
  M-DP score mean ± SD, DAS28-CRP response group Good: −0.55 ± 0.35 log2 (fold/baseline)
  M-DP score mean ± SD, DAS28-CRP response group Moderate: −0.54 ± 0.35 log2 (fold/baseline)
  M-DP score mean ± SD, DAS28-CRP response group No: −0.35 ± 0.33 [39]+ log2 (fold/baseline)
14-analyte M-DP panel; [10]
  M-DP score mean ± SD, All treated: −0.41 ± 0.33 log2 (fold/baseline)
  M-DP score mean difference ± SD, Good vs. No: −0.12 ± 0.34 log2 (fold/baseline)
  M-DP score mean ± SD, DAS28-CRP response group Good: −0.46 ± 0.35 log2 (fold/baseline)
  M-DP score mean ± SD, DAS28-CRP response group Moderate: −0.41 ± 0.29 log2 (fold/baseline)
  M-DP score mean ± SD, DAS28-CRP response group No: −0.34 ± 0.31 [31]+ log2 (fold/baseline)
14-analyte M-DP panel; [11]
  M-DP score mean ± SD, All treated: −0.53 ± 0.36 log2 (fold/baseline)
  M-DP score mean difference ± SD, Good vs. No: −0.18 ± 0.35 log2 (fold/baseline)
  M-DP score mean ± SD, DAS28-CRP response group Good: −0.59 ± 0.38 log2 (fold/baseline)
  M-DP score mean ± SD, DAS28-CRP response group Moderate: −0.54 ± 0.37 log2 (fold/baseline)
  M-DP score mean ± SD, DAS28-CRP response group No: −0.41 ± 0.28 [40]+ log2 (fold/baseline)
14-analyte M-DP panel; SIRROUND-T, week 4, sirukumab 50 mg q4w
  M-DP score GMean decrease from baseline: 22%
14-analyte M-DP panel; SIRROUND-T, week 4, sirukumab 100 mg q2w
  M-DP score GMean decrease from baseline: 29%
RA patients
  clinical efficacy in the underlying clinical studies: clinically efficacious

— patent publication US20230243822A1, “MOLECULAR DISEASE PROFILE AND USE THEREOF FOR MONITORING AND TREATING RHEUMATAOID ARTHRITIS” (JANSSEN BIOTECH, INC., priority 2020, published 2023)
